The Kd is the free concentration of one partner at which half of the binding sites on the other are occupied at equilibrium, for simple one-to-one binding. Read a low Kd as higher affinity.

In the assay the target is T1, soluble human FcRn complexed with β2-microglobulin (human, UniProt P61769 21-119, limits assumed).
T1 construct: also called hFcRn
In words: Biacore SPR, pH 7.0.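 Note: test antibodies captured on a Protein L chip with human FcRn flowed over as analyte, KD obtained as the ratio of dissociation to association rate constants.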 Background: Surface plasmon resonance follows binding to a sensor surface in real time, without labels.

T1 sequence (chain, as listed by the source limits assumed, chain 1 of 2): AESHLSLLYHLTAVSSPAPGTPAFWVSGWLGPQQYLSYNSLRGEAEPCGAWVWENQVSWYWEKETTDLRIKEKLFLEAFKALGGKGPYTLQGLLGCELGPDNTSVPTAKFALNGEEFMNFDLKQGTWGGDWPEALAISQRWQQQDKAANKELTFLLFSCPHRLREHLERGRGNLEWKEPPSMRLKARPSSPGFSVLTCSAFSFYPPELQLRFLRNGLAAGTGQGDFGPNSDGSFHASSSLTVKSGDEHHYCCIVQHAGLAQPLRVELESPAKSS
T1 sequence (P61769 21-119 limits assumed, chain 2 of 2): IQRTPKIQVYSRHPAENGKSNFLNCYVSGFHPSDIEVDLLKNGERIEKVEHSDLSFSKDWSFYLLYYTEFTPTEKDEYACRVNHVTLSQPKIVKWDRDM
Experimental: A kinetic analysis of binding between human FcRn and the aforementioned antibodies was carried out using the BIACORE™ T100 or T200 surface plasmon resonance system (GE Healthcare). The antibodies being tested were captured on the CM4 Sensor Chip (GE Healthcare) on which a suitable amount of Protein L (ACTIGEN® protein (Alltech)) was suitably immobilized by amine coupling. Next, diluted human FcRn and a running buffer used as a blank were injected to allow the human FcRn to interact with the antibody captured on the sensor chip. A buffer consisting of 50 mmol/L sodium phosphate, 150 mmol/L NaCl and 0.05% (w/v) polysorbate 20 (Tween 20®) (pH 7.0 or pH 7.4) was used for the running buffer, and each buffer was also used to dilute the human FcRn. 10 mmol/L glycine-HCl (pH 1.5) was used to regenerate the sensor chip. All measurements of binding were carried out at 25° C. The KD(M) of each antibody to human FcRn was calculated based on kinetics parameters, i.e., the association rate constant ka (1/Ms) and the dissociation rate constant kd (1/s) calculated from a sensorgram obtained by the measurement. The BIACORE™ T100 or T200 Evaluation Software (GE Healthcare) was used to calculate each parameter.

B1: IgG1-F1290 (antibody)
heavy: QVQLQESGPGLVKPSETLSLTCAVSGHSISHDHAWSWVRQPPGEGLEWIGFISYSGITNYNPSLQGRVTISRDNSKNTLYLQMNSLRAEDTAVYYCARSLARTTAMDYWGEGTLVTVSSASTKGPSVFPLAPSSKSTSGGTAALGCLVKDYFPEPVTVSWNSGALTSGVHTFPAVLQSSGLYSLSSVVTVPSSSLGTQTYICNVNHKPSNTKVDKKVEPKSCDKTHTCPPCPAPELRGGPKVFLFPPKPKDTLYISREPEVTCVVVDVSHEDPEVKFNWYVDGVEVHNAKTKPREEQYNSTYRVVSVLTVLHQDWLNGKEYKCKVSNKALPAPIEKTISKAKGQPREPQVYTLPPSRDELTKNQVSLTCLVKGFYPSDIAVEWESNGQPENNYKTTPPVLDSDGSFFLYSKLTVDKSRWQQGNVFSCSVMHEALDYHVTKKDLSLSP
light: not shown
notes: EU numbering; copies: 2 + 2
B1 gave a Kd of 111 nM. In other words, the sub-micromolar range.

B2: IgG1-F1292 (antibody)
heavy: QVQLQESGPGLVKPSETLSLTCAVSGHSISHDHAWSWVRQPPGEGLEWIGFISYSGITNYNPSLQGRVTISRDNSKNTLYLQMNSLRAEDTAVYYCARSLARTTAMDYWGEGTLVTVSSASTKGPSVFPLAPSSKSTSGGTAALGCLVKDYFPEPVTVSWNSGALTSGVHTFPAVLQSSGLYSLSSVVTVPSSSLGTQTYICNVNHKPSNTKVDKKVEPKSCDKTHTCPPCPAPELRGGPKVFLFPPKPKDTLMISRTPEVTCVVVDVSHEDPEVKFNWYVDGVEVHNAKTKPREEQYNSTYRVVSVLTVLHQDWLNGKEYKCKVSNKALPAPIEKTISKAKGQPREPQVYTLPPSRDELTKNQVSLTCLVKGFYPSDIAVEWESNGQPENNYKTTPPVLDSDGSFFLYSKLTVDKSRWQQGNVFSCSVMHEALDWHVTRKELSLSP
light: not shown
notes: EU numbering; copies: 2 + 2
For the molecule B2, binding was put at a Kd of 424 nM.

B3: IgG1-F1297 (antibody)
heavy: QVQLQESGPGLVKPSETLSLTCAVSGHSISHDHAWSWVRQPPGEGLEWIGFISYSGITNYNPSLQGRVTISRDNSKNTLYLQMNSLRAEDTAVYYCARSLARTTAMDYWGEGTLVTVSSASTKGPSVFPLAPSSKSTSGGTAALGCLVKDYFPEPVTVSWNSGALTSGVHTFPAVLQSSGLYSLSSVVTVPSSSLGTQTYICNVNHKPSNTKVDKKVEPKSCDKTHTCPPCPAPELRGGPKVFLFPPKPKDTLYISREPEVTCVVVDVSHEDPEVKFNWYVDGVEVHNAKTKPREEQYNSTYRVVSVLTVLHQDWLNGKEYKCKVSNKALPAPIEKTISKAKGQPREPQVYTLPPSRDELTKNQVSLTCLVKGFYPSDIAVEWESNGQPENNYKTTPPVLDSDGSFFLYSKLTVDKSRWQQGNVFSCSVMHEALDYHTTRKELSLSP
light: not shown
notes: EU numbering; copies: 2 + 2
On to B3, for which binding was put at a Kd of 250 nM.

B4: IgG1-F1301 (antibody)
heavy: QVQLQESGPGLVKPSETLSLTCAVSGHSISHDHAWSWVRQPPGEGLEWIGFISYSGITNYNPSLQGRVTISRDNSKNTLYLQMNSLRAEDTAVYYCARSLARTTAMDYWGEGTLVTVSSASTKGPSVFPLAPSSKSTSGGTAALGCLVKDYFPEPVTVSWNSGALTSGVHTFPAVLQSSGLYSLSSVVTVPSSSLGTQTYICNVNHKPSNTKVDKKVEPKSCDKTHTCPPCPAPELRGGPKVFLFPPKPKDTLYISREPEVTCVVVDVSHEDPEVKFNWYVDGVEVHNAKTKPREEQYNSTYRVVSVLTVLHQDWLNGKEYKCKVSNKALPAPIEKTISKAKGQPREPQVYTLPPSRDELTKNQVSLTCLVKGFYPSDIAVEWESNGQPENNYKTTPPVLDSDGSFFLYSKLTVDKSRWQQGNVFSCSVMHEALHYHFTKKDLSLSP
light: not shown
notes: EU numbering; copies: 2 + 2
With B4, the dissociation constant (Kd) worked out at 83 nM.

B5: IgG1-F1291 (antibody)
heavy: QVQLQESGPGLVKPSETLSLTCAVSGHSISHDHAWSWVRQPPGEGLEWIGFISYSGITNYNPSLQGRVTISRDNSKNTLYLQMNSLRAEDTAVYYCARSLARTTAMDYWGEGTLVTVSSASTKGPSVFPLAPSSKSTSGGTAALGCLVKDYFPEPVTVSWNSGALTSGVHTFPAVLQSSGLYSLSSVVTVPSSSLGTQTYICNVNHKPSNTKVDKKVEPKSCDKTHTCPPCPAPELRGGPKVFLFPPKPKDTLYISRTPEVTCVVVDVSHEDPEVKFNWYVDGVEVHNAKTKPREEQYNSTYRVVSVLTVLHQDWLNGKEYKCKVSNKALPAPIEKTISKAKGQPREPQVYTLPPSRDELTKNQVSLTCLVKGFYPSDIAVEWESNGQPENNYKTTPPVLDSDGSFFLYSKLTVDKSRWQQGNVFSCSVMHEALDYHVTQKSLSLSP
light: not shown
notes: EU numbering; copies: 2 + 2
With B5, the affinity, expressed as Kd, was 151 nM.

B6: IgG1-F1293 (antibody)
heavy: QVQLQESGPGLVKPSETLSLTCAVSGHSISHDHAWSWVRQPPGEGLEWIGFISYSGITNYNPSLQGRVTISRDNSKNTLYLQMNSLRAEDTAVYYCARSLARTTAMDYWGEGTLVTVSSASTKGPSVFPLAPSSKSTSGGTAALGCLVKDYFPEPVTVSWNSGALTSGVHTFPAVLQSSGLYSLSSVVTVPSSSLGTQTYICNVNHKPSNTKVDKKVEPKSCDKTHTCPPCPAPELRGGPKVFLFPPKPKDTLYISREPEVTCVVVDVSHEDPEVKFNWYVDGVEVHNAKTKPREEQYNSTYRVVSVLTVLHQDWLNGKEYKCKVSNKALPAPIEKTISKAKGQPREPQVYTLPPSRDELTKNQVSLTCLVKGFYPSDIAVEWESNGQPENNYKTTPPVLDSDGSFFLYSKLTVDKSRWQQGNVFSCSVMHEALHYHYTRKELSLSP
light: not shown
notes: EU numbering; copies: 2 + 2
Regarding B6, the affinity, expressed as Kd, was 161 nM.

B7: IgG1-F1300 (antibody)
heavy: QVQLQESGPGLVKPSETLSLTCAVSGHSISHDHAWSWVRQPPGEGLEWIGFISYSGITNYNPSLQGRVTISRDNSKNTLYLQMNSLRAEDTAVYYCARSLARTTAMDYWGEGTLVTVSSASTKGPSVFPLAPSSKSTSGGTAALGCLVKDYFPEPVTVSWNSGALTSGVHTFPAVLQSSGLYSLSSVVTVPSSSLGTQTYICNVNHKPSNTKVDKKVEPKSCDKTHTCPPCPAPELRGGPKVFLFPPKPKDTLYISREPEVTCVVVDVSHEDPEVKFNWYVDGVEVHNAKTKPREEQYNSTYRVVSVLTVLHQDWLNGKEYKCKVSNKALPAPIEKTISKAKGQPREPQVYTLPPSRDELTKNQVSLTCLVKGFYPSDIAVEWESNGQPENNYKTTPPVLDSDGSFFLYSKLTVDKSRWQQGNVFSCSVMHEALHYHTTKKDLSLSP
light: not shown
notes: EU numbering; copies: 2 + 2
For the molecule B7, binding was put at a Kd of 163 nM.

B8: IgG1-F1296 (antibody)
heavy: QVQLQESGPGLVKPSETLSLTCAVSGHSISHDHAWSWVRQPPGEGLEWIGFISYSGITNYNPSLQGRVTISRDNSKNTLYLQMNSLRAEDTAVYYCARSLARTTAMDYWGEGTLVTVSSASTKGPSVFPLAPSSKSTSGGTAALGCLVKDYFPEPVTVSWNSGALTSGVHTFPAVLQSSGLYSLSSVVTVPSSSLGTQTYICNVNHKPSNTKVDKKVEPKSCDKTHTCPPCPAPELRGGPKVFLFPPKPKDTLYISREPEVTCVVVDVSHEDPEVKFNWYVDGVEVHNAKTKPREEQYNSTYRVVSVLTVLHQDWLNGKEYKCKVSNKALPAPIEKTISKAKGQPREPQVYTLPPSRDELTKNQVSLTCLVKGFYPSDIAVEWESNGQPENNYKTTPPVLDSDGSFFLYSKLTVDKSRWQQGNVFSCSVMHEALDYHYTRKELSLSP
light: not shown
notes: EU numbering; copies: 2 + 2
In turn, B8 had a Kd of 227 nM.

B9: IgG1-F1298 (antibody)
heavy: QVQLQESGPGLVKPSETLSLTCAVSGHSISHDHAWSWVRQPPGEGLEWIGFISYSGITNYNPSLQGRVTISRDNSKNTLYLQMNSLRAEDTAVYYCARSLARTTAMDYWGEGTLVTVSSASTKGPSVFPLAPSSKSTSGGTAALGCLVKDYFPEPVTVSWNSGALTSGVHTFPAVLQSSGLYSLSSVVTVPSSSLGTQTYICNVNHKPSNTKVDKKVEPKSCDKTHTCPPCPAPELRGGPKVFLFPPKPKDTLYISREPEVTCVVVDVSHEDPEVKFNWYVDGVEVHNAKTKPREEQYNSTYRVVSVLTVLHQDWLNGKEYKCKVSNKALPAPIEKTISKAKGQPREPQVYTLPPSRDELTKNQVSLTCLVKGFYPSDIAVEWESNGQPENNYKTTPPVLDSDGSFFLYSKLTVDKSRWQQGNVFSCSVMHEALDYHFTRKELSLSP
light: not shown
notes: EU numbering; copies: 2 + 2
Molecule B9 showed an equilibrium dissociation constant (Kd) of 147 nM.

B10: IgG1-F1295 (antibody)
heavy: QVQLQESGPGLVKPSETLSLTCAVSGHSISHDHAWSWVRQPPGEGLEWIGFISYSGITNYNPSLQGRVTISRDNSKNTLYLQMNSLRAEDTAVYYCARSLARTTAMDYWGEGTLVTVSSASTKGPSVFPLAPSSKSTSGGTAALGCLVKDYFPEPVTVSWNSGALTSGVHTFPAVLQSSGLYSLSSVVTVPSSSLGTQTYICNVNHKPSNTKVDKKVEPKSCDKTHTCPPCPAPELRGGPKVFLFPPKPKDTLYISREPEVTCVVVDVSHEDPEVKFNWYVDGVEVHNAKTKPREEQYNSTYRVVSVLTVLHQDWLNGKEYKCKVSNKALPAPIEKTISKAKGQPREPQVYTLPPSRDELTKNQVSLTCLVKGFYPSDIAVEWESNGQPENNYKTTPPVLDSDGSFFLYSKLTVDKSRWQQGNVFSCSVMHEALHYHFTRKELSLSP
light: not shown
notes: EU numbering; copies: 2 + 2
B10 registered a Kd of 98.4 nM. The Kd values of the last two molecules are within 1.5-fold of each other.

B11: IgG1-F1299 (antibody)
heavy: QVQLQESGPGLVKPSETLSLTCAVSGHSISHDHAWSWVRQPPGEGLEWIGFISYSGITNYNPSLQGRVTISRDNSKNTLYLQMNSLRAEDTAVYYCARSLARTTAMDYWGEGTLVTVSSASTKGPSVFPLAPSSKSTSGGTAALGCLVKDYFPEPVTVSWNSGALTSGVHTFPAVLQSSGLYSLSSVVTVPSSSLGTQTYICNVNHKPSNTKVDKKVEPKSCDKTHTCPPCPAPELRGGPKVFLFPPKPKDTLYISREPEVTCVVVDVSHEDPEVKFNWYVDGVEVHNAKTKPREEQYNSTYRVVSVLTVLHQDWLNGKEYKCKVSNKALPAPIEKTISKAKGQPREPQVYTLPPSRDELTKNQVSLTCLVKGFYPSDIAVEWESNGQPENNYKTTPPVLDSDGSFFLYSKLTVDKSRWQQGNVFSCSVMHEALHYHYTKKDLSLSP
light: not shown
notes: EU numbering; copies: 2 + 2
Molecule B11 gave a Kd of 150 nM.

B12: IgG1-F1294 (antibody)
heavy: QVQLQESGPGLVKPSETLSLTCAVSGHSISHDHAWSWVRQPPGEGLEWIGFISYSGITNYNPSLQGRVTISRDNSKNTLYLQMNSLRAEDTAVYYCARSLARTTAMDYWGEGTLVTVSSASTKGPSVFPLAPSSKSTSGGTAALGCLVKDYFPEPVTVSWNSGALTSGVHTFPAVLQSSGLYSLSSVVTVPSSSLGTQTYICNVNHKPSNTKVDKKVEPKSCDKTHTCPPCPAPELRGGPKVFLFPPKPKDTLYISREPEVTCVVVDVSHEDPEVKFNWYVDGVEVHNAKTKPREEQYNSTYRVVSVLTVLHQDWLNGKEYKCKVSNKALPAPIEKTISKAKGQPREPQVYTLPPSRDELTKNQVSLTCLVKGFYPSDIAVEWESNGQPENNYKTTPPVLDSDGSFFLYSKLTVDKSRWQQGNVFSCSVMHEALHYHTTRKELSLSP
light: not shown
notes: EU numbering; copies: 2 + 2
In turn, B12 returned a dissociation constant Kd of 200 nM.

The values are drawn from US20200199241A1 (Chugai, published 2020).
